This note sets out measurements from article PMC11919764, “Cryo-electron tomography reveals how COPII assembles on cargo-containing membranes” (Nature Structural & Molecular Biology, 2024).

This assay deals with T1, Sec24 (S. cerevisiae, UniProt P40482 1-926).
T1 construct: Sec24, S. cerevisiae; The Sec24 chain of m2; in the assays it stood in the Sec23–Sec24 complex
T1 sequence: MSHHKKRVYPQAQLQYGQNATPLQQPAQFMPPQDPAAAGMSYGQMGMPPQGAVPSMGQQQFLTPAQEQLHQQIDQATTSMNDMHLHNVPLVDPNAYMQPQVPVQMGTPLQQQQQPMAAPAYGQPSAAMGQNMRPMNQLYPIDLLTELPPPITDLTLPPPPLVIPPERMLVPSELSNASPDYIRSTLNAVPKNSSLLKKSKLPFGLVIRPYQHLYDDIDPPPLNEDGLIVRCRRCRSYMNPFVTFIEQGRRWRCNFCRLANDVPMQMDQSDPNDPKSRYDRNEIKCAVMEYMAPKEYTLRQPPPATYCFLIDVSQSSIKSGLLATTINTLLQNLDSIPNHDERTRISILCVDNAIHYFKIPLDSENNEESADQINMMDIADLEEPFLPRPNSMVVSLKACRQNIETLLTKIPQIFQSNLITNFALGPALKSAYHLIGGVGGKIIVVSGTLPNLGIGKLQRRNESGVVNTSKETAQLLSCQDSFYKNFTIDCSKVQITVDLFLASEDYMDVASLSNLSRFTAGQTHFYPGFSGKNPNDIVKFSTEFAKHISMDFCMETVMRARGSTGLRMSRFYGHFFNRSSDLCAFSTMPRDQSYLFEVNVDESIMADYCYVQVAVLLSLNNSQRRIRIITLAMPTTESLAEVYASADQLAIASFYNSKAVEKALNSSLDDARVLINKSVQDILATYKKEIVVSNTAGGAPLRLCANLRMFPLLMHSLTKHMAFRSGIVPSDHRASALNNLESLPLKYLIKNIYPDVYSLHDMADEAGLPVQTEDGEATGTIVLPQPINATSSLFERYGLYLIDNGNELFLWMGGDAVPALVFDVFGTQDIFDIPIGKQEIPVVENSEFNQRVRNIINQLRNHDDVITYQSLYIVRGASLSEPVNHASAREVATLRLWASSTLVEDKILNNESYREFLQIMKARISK
Put plainly: cryo-EM structure; cryo-ET with subtomogram averaging of COPII budding reactions on GUVs enriched with Sed5 held by its 6xHis-tag on Ni-NTA lipids: 1 μM Sar1, 180 nM Sec23–Sec24, 173 μM Sec13–Sec31, 360 nM Sed5, 1 mM GMP-PNP, 2.5 mM EDTA (pH 8.0), 10% GUVs (v/v); coated tubes; atomic models rigid-body fitted. To be noted: both partners purified.

B1: Sed5 cytosolic domain (residues 1–319) with C-terminal 6xHis-tag (domain or fragment, S. cerevisiae)
chain: MNIKDRTSEFQQSVLSYKKRNKNFREQQRERLQEKESENFANNTTGNGKSVSEFQKKASGIAHEISSTAQLLSKLAVLAKRKPMFNDNPVEIAELSFLIKRKIYAIEQSLVQLSQLKKTDVNGNTSNQSSKQPSAVQHSKNVVNLLNTQMKNISGSFKDVLEERQRLEMANKDRWQKLTTDTGHAPADDQTQSNHAADLTTYNNSNPFMTSLLDESSEKNNNSSNQGELSFPQNDSQLMLMEEGQLSNNVYLQERNRAVETIESTIQEVGNLFQQLASMVQEQGEVIQRIDANVDDIDLNISGAQRELLKYFDRIKSNRGGG
notes: Sed5, S. cerevisiae S288c, UniProt Q01590, residues 1–319 (transmembrane helix truncated); flexible triple-glycine linker between residue 319 of Sed5 and the 6xHis-tag; Held on GUVs through Ni-NTA tagged lipids by its C-terminal 6xHis-tag, which stands in place of the transmembrane domain; also called 6xHis-tagged Sed5; source: E. coli BL21, purified (Ni-NTA, HiTrap Q, Superdex 200); not shown: …
For the molecule B1, the binding result is listed as “binds”.
